Test results from paper PMC8537947, “Improved Radiolytic Stability of a ^68Ga-labelled Collagelin Analogue for the Imaging of Fibrosis” (Pharmaceuticals, 2021).
Bridge positions count the residues as written; N and C are the ends. Square brackets hold non-standard residues; d marks the D form. Peptide text beside a SMILES is read from it. * marks the point of attachment. NOTA = O=C(O)CN1CCN(CC(=O)O)CCN(CC(=O)*)CC1; Nle = CCCC[C@H](N)C(=O)O; AEEA = NCCOCCOCC(=O)O

Test: in vivo
Parameters: species or system Sprague-Dawley rats
Details: Sprague-Dawley, rat, iv, total radioactivity
Description: Sixteen male (n = 10; 363.3 ± 19.6 g) and female (n = 6; 199.2 ± 5.5 g) Sprague–Dawley rats were used for ex vivo organ distribution of the [^68Ga]Ga-NO2A-[Nle13]-Col for the subsequent extrapolation and calculation of human dosimetry. The male and female animals were administered into the tail vein with, respectively, 2.3 ± 0.8 MBq and 1.4 ± 0.5 MBq, sacrificed at 5, 10, 30, 40, 60, and 120 min post administration, and the organs were harvested, weighted, and measured for their radioactivity content. Samples from the blood, heart, lung, liver, spleen, adrenal glands, kidneys, intestines with or without contents, muscle, testis, bone, brain, pancreas, urine bladder, and bone marrow were collected. To monitor radioactivity elimination and recovery, the radioactivity of the remaining carcass was also measured. The radioactivity measurements were corrected for decay and converted into standardized uptake values (SUVs, Table S2) according to Equation (2), wherein the radioactivity is expressed in MBq and the weight in grams:(2) SUV=Radioactivityorgan∗weightrat/Radioactivityinjected∗weightorgan

[1] = female, 1.4 MBq, SUV bladder (UB)
[2] = female, 1.4 MBq, SUV blood (BL)
[3] = female, 1.4 MBq, SUV brain (BR)
[4] = female, 1.4 MBq, SUV heart (HE)
[5] = female, 1.4 MBq, SUV liver (LI)
[6] = female, 1.4 MBq, SUV lungs (LU)
[7] = female, 1.4 MBq, SUV muscle (MU)
[8] = female, 1.4 MBq, SUV red bone marrow (BM)
[9] = female, 1.4 MBq, SUV spleen (SP)
[10] = female, SUV large intestine without content (INL-)
[11] = female, SUV small intestine with its content (INS+)

Compound: CCCC[C@@H]1NC(=O)[C@H](C(C)C)NC(=O)[C@H](CCCNC(=N)N)NC(=O)CNC(=O)[C@@H]2CCCN2C(=O)[C@@H](NC(=O)COCCOCCNC(=O)CN2CCN(CC(=O)O)CCN(CC(=O)O)CC2)CSSC[C@@H](C(=O)O)NC(=O)[C@@H]2CCCN2C(=O)CNC(=O)[C@H](CCC(=O)O)NC(=O)[C@H](CC(=O)O)NC(=O)[C@H](CC(=O)O)NC(=O)CNC(=O)[C@H](CC(C)C)NC(=O)[C@H](Cc2c[nH]cn2)NC(=O)[C@H](CC(C)C)NC(=O)CNC(=O)[C@H](Cc2c[nH]cn2)NC1=O [[^68Ga]Ga-NO2A-[Nle^13]-Col, [^68Ga]Ga-NOTA-PEG2-c[CPGRVNleHGLHLGDDEGPC], metal not drawn] ({NOTA-AEEA}-CPGRV[Nle]HGLHLGDDEGPC-OH; disulfide 1-18)
- SUV at 2 h (SUV of adrenal glands, bone marrow and urinary bladder): < 0.25 SUV
- SUV at 1 h (SUV of all vital organs): < 0.2 SUV
- SUV at 2 h (SUV of the remainder of the organs): < 0.1 SUV
- SUV at 2 h (both sexes, SUV of most of the organs): < 0.25 SUV
- SUV at 5 min [1]: 4.88 SUV
- SUV at 10 min [1]: 6.96 SUV
- SUV at 0.5 h [1]: 5.83 SUV
- SUV at 40 min [1]: 0.843 SUV
- SUV at 1 h [1]: 1.08 SUV
- SUV at 2 h [1]: 0.321 SUV
- SUV at 10 min [2]: 1.42 SUV
- SUV at 0.5 h [2]: 0.497 SUV
- SUV at 40 min [2]: 0.432 SUV
- SUV at 1 h [2]: 0.217 SUV
- SUV at 2 h [2]: 0.0412 SUV
- SUV at 5 min (female, 1.4 MBq, SUV bone (BO)): 0.391 SUV
- SUV at 10 min (female, 1.4 MBq, SUV bone (BO)): 0.403 SUV
- SUV at 0.5 h (female, 1.4 MBq, SUV bone (BO)): 0.179 SUV
- SUV at 40 min (female, 1.4 MBq, SUV bone (BO)): 0.106 SUV
- SUV at 1 h (female, 1.4 MBq, SUV bone (BO)): 0.064 SUV
- SUV at 2 h (female, 1.4 MBq, SUV bone (BO)): 0.031 SUV
- SUV at 5 min [3]: 0.073 SUV
- SUV at 10 min [3]: 0.0964 SUV
- SUV at 0.5 h [3]: 0.0189 SUV
- SUV at 40 min [3]: 0.0174 SUV
- SUV at 1 h [3]: 0.0149 SUV
- SUV at 2 h [3]: 0.0062 SUV
- SUV at 5 min [4]: 0.741 SUV
- SUV at 10 min [4]: 0.68 SUV
- SUV at 0.5 h [4]: 0.207 SUV
- SUV at 40 min [4]: 0.18 SUV
- SUV at 1 h [4]: 0.104 SUV
- SUV at 2 h [4]: 0.026 SUV
- SUV at 5 min [5]: 0.438 SUV
- SUV at 10 min [5]: 0.452 SUV
- SUV at 0.5 h [5]: 0.171 SUV
- SUV at 40 min [5]: 0.147 SUV
- SUV at 1 h [5]: 0.114 SUV
- SUV at 2 h [5]: 0.0889 SUV
- SUV at 5 min [6]: 1.12 SUV
- SUV at 10 min [6]: 0.986 SUV
- SUV at 0.5 h [6]: 0.385 SUV
- SUV at 40 min [6]: 0.427 SUV
- SUV at 1 h [6]: 0.276 SUV
- SUV at 2 h [6]: 0.0631 SUV
- SUV at 5 min [7]: 0.514 SUV
- SUV at 10 min [7]: 0.295 SUV
- SUV at 0.5 h [7]: 0.214 SUV
- SUV at 40 min [7]: 0.0802 SUV
- SUV at 1 h [7]: 0.0488 SUV
- SUV at 2 h [7]: 0.0213 SUV
- SUV at 2 h (female, 1.4 MBq, SUV ovarian (OV)): 0.124 SUV
- SUV at 5 min [8]: 0.484 SUV
- SUV at 10 min [8]: 0.443 SUV
- SUV at 0.5 h [8]: 0.162 SUV
- SUV at 40 min [8]: 0.769 SUV
- SUV at 1 h [8]: 0.113 SUV
- SUV at 2 h [8]: 0.343 SUV
- SUV at 5 min [9]: 0.423 SUV
- SUV at 10 min [9]: 0.354 SUV
- SUV at 0.5 h [9]: 0.174 SUV
- SUV at 40 min [9]: 0.135 SUV
- SUV at 1 h [9]: 0.0938 SUV
- SUV at 5 min (female, SUV adrenals (AD)): 0.724 SUV
- SUV at 10 min (female, SUV adrenals (AD)): 1.29 SUV
- SUV at 0.5 h (female, SUV adrenals (AD)): 0.0127 SUV
- SUV at 40 min (female, SUV adrenals (AD)): 0.25 SUV
- SUV at 1 h (female, SUV adrenals (AD)): 0.198 SUV
- SUV at 2 h (female, SUV adrenals (AD)): 0.128 SUV
- SUV at 5 min (female, SUV blood (BL)): 2.06 SUV
- SUV at 5 min (female, SUV kidneys (KI)): 12.1 SUV
- SUV at 10 min (female, SUV kidneys (KI)): 11.3 SUV
- SUV at 0.5 h (female, SUV kidneys (KI)): 6.32 SUV
- SUV at 40 min (female, SUV kidneys (KI)): 12.9 SUV
- SUV at 1 h (female, SUV kidneys (KI)): 12.8 SUV
- SUV at 2 h (female, SUV kidneys (KI)): 9.08 SUV
- SUV at 5 min [10]: 0.569 SUV
- SUV at 10 min [10]: 0.91 SUV
- SUV at 0.5 h [10]: 0.193 SUV
- SUV at 40 min [10]: 0.211 SUV
- SUV at 1 h [10]: 0.103 SUV
- SUV at 2 h [10]: 0.046 SUV
- SUV at 5 min (female, SUV ovarian (OV)): 0.927 SUV
- SUV at 10 min (female, SUV ovarian (OV)): 1.87 SUV
- SUV at 0.5 h (female, SUV ovarian (OV)): 0.341 SUV
- SUV at 40 min (female, SUV ovarian (OV)): 0.335 SUV
- SUV at 1 h (female, SUV ovarian (OV)): 0.159 SUV
- SUV at 5 min (female, SUV pancreas (PA)): 0.439 SUV
- SUV at 10 min (female, SUV pancreas (PA)): 0.361 SUV
- SUV at 0.5 h (female, SUV pancreas (PA)): 0.164 SUV
- SUV at 40 min (female, SUV pancreas (PA)): 0.0609 SUV
- SUV at 1 h (female, SUV pancreas (PA)): 0.0659 SUV
- SUV at 2 h (female, SUV pancreas (PA)): 0.029 SUV
- SUV at 5 min [11]: 0.436 SUV
- SUV at 10 min [11]: 0.558 SUV
- SUV at 0.5 h [11]: 0.277 SUV
- SUV at 40 min [11]: 0.165 SUV
- SUV at 1 h [11]: 0.129 SUV
- SUV at 2 h [11]: 0.0343 SUV
